{"source": "the DeepSol protein solubility set"}
{"experiment": "soluble on expression in E. coli; label from the status in PepcDB or PDB records"}
{"sequence": "MSLDSSRIKVVFWHEMKGPGQQAIDAYVKAFNHQQSKYEVVAEFEGGYNGVIQKILNTHGTAASPALFQSMDISTSQMYHSGFTTPMQKFIDRDHYDADQIIPGAKAIVMRDNQLLAMPFNASQTALYYNKRVLRQYGITPPPVDPTYDDITRVAKAIHDKSHGKVKGMTMEAYSWLFEQLVANAGVPVANHDNGHTGNATKVDFTSPAAINAMKWVKENIDYGDFMNFGSGGNAAANEAASFLAGHLGIFMQSSANTGQLYQVLKNDLGVTYFPRPNGQRANGIAVGGAALWIANDKPSAVQDGAWEFTKFLASAQTQADWQAKTGYLAVNKGAKDEPTLKKLFKKSPVLEVSGNQMLRTKPNNTNSGVFVDGWVPARTAIQTAMQQIFAGQDIRQSLQTAENTYNKVLESNNRANGREGHHHHHH", "soluble on expression in E. coli": "soluble"}
{"sequence": "MGSDKIHHHHHHMTYAVGDIHGCFYALKSLLEKLPLSEEDELIFMGDYVDRGPNSREVIEFLIELSKHHRCIFLRGNHEEMLLNCVKNGSDCDLWFFNGARSTVESFGGVEEIKKFLPFFENTVYHYEKENYVFVHGGVRPGVSLEDQDPFDLVWIRDEFIYSENPLPGKIVVFGHTPFEEPFVSRDKIGIDTGCVYGGRLTALRVEDRKFFQVECANRRW", "soluble on expression in E. coli": "not soluble"}
{"sequence": "MVVLYNECLKNHAVSLGGHALDGCGEFTPKSTTILTDPPSLRCDACGCHRNFHRRSPSDGFSQHRSPPSPLQLQPLAPVPNLLLSLSSGFFGPSDQEVKNKFTVERDVRKTAMIKKHKRTKFTAEQKVKMRGFAERAGWKINGWDEKWVREFCSEVGIERKVLKVWIHNNKYFNNGRSRDTTSSMSLNLKL", "soluble on expression in E. coli": "soluble"}
{"sequence": "MSLTASPIVVFDLDGTLIDTAPDLINALNFILVREGMPAVPMAVARNMIGQGARRLLERGLELDGRVIAQDDVNRLTVDFIDYYAAHIADESRPFEGLEATLDELSESGYRFAVCTNKLEWLSKLLLDRLGLSPRFAAICGADTFGVAKPDPAILRETVAKAGGDLSAAIMVGDAGPDVGVARRAGVPVIGVEFGYTEVPIAELQPDLLVGHMRELPNAVGRLLPRREGHHHHHH", "soluble on expression in E. coli": "soluble"}
{"sequence": "MLLDKLSRPLKVLRISLTDRCNLRCNFCMPPGKEYNFLPKRQLLTPEEIEEYVKIFAKLGVEKVRLTGGEPLLREDLEEIIQRISKVEGIKDIALTTNGVFLKERLKALKEAGLKRITVSVHSLNPEKNQKLVNRSVNLGEVFEVIIRAKELGFKVKVNSVIIKGFNDDEILDLARFFKNLGVTLRFIEYMDVGTVNDWDFSKVVSADEILNLMKKEFTFYPLPKRPEDTSMDFIYEDGNKFGIIASVTKPFCRGCNRIRLSADGKLYTCLFSDKGHDLRNAVDKENFIKEVWKDRKDRYSELRRQMKRERKVEMFKVGGMGHHHHHHSH", "soluble on expression in E. coli": "soluble"}
{"sequence": "MRHAVHQELIDTNPAANLGGVTTPPVRRHYPALPLERLPELLERIGAYHQGRELTRHAVLLMLHVFIRSSELRFARWSEIDFTNRVWTIPATREPIIGVRYSGRGAKMRMPHIVPLSEQSIAILKQIKDITGNNELIFPGDHNPYKPMCENTVNKALRVMGYDTKKDICGHGFRAMACSALMESGLWAKDAVERQMSHQERNTVRMAYIHKAEHLEARKAMMQWWSDYLEACRESYAPPYTIGKNKFIP", "soluble on expression in E. coli": "not soluble"}
{"sequence": "MSPILAKNIVYVAQIKGQITSYTYDQFDRYITIAEQDNAEAIIIELDTPGGRADAMMNIVQRIQQSKIPVIIYVYPPGASAASAGTYIALGSHLIAMAPGTSIGACRPILGYSQNGSIIEAPPKITNYFIAYIKSLAQESGRNATIAEEFITKDLSLTPEEALKYGVIEVVARDINELLKKSNGMKTKIPVNGRYVTLNFTNVEVRYLAPSFKDKLISYITDLEHHHHHH", "soluble on expression in E. coli": "soluble"}
{"sequence": "MSKVKGDLEKSDKRPPSSMSTGSADSGVFSSGVHASSPSHSQGSSSQSGPPSPTTQLNSLLFETANLIAVNEQLRKEIAENKQIQTNQMRALRYSSNPVDQPFVANSISPHHGFPQRPPRGERRMQKPESYKTVICQAWLESKTCTFAENCRFAHGEEELRPAKLESRQNNKYKTKLCDKYTTTGLCPYGKRCLFIHPDNQPNAYIRADKLYEVSQRHALADLRDHVESQIMTGNTRNSYNQQPPPMGGLEMQSSPMKSSSDSSHMRSPMAQMNCETTRPHPSWPLESSSFFLPPEMSSINNNNLMSPFETPFPNGSTGIQPHFVTAKRRAAFPPVPSNFQQDDDNMSSIPGFDHLAEDMAKHLELW", "soluble on expression in E. coli": "not soluble"}
{"sequence": "MKYQLNLTALRCPIPLLSAKKALKNLDKNDELMLILNLESAVENFSIFAEENSVALVEQYYASEKEFIVILKK", "soluble on expression in E. coli": "not soluble"}
{"sequence": "NTWKIFVGNVSAACTSQELRSLFERRGRVIECDVVKDYAFVHMEKEADAKAAIAQLNGKEVKGKRINVELSTKGQKK", "soluble on expression in E. coli": "soluble"}
{"sequence": "MGSDKIHHHHHHMGPYRFVNREFLIITYRTDMDRLREIVPEPLEVKEPLVHYEFIRMPDSTGFGDYTESGQVIPVEYKGQPGGYTLAMYLNDHPPIAGGRELWGFPKKLAQPTLQTHIDTLLGTLDYGPVRVATGTMGYKHQELDLEEQAKRLAGANFLLKIIPHVDGSARVCELVRYYLQDIEMKGAWTGPASLQLAPHALAPVADLPVLEIVEARHLLADLTLGLGEVVYDYLAQ", "soluble on expression in E. coli": "not soluble"}
{"sequence": "MGSDKIHHHHHHMSISIYAFYNNKGGVGKTTLCSNAATLYAEKNPKTQVLVIDMCPQANISQFLLGGGKKGYQINQRLQSSATRKNIVGFIDWLLKGNSNFRKPNTSYQVPVYRYNPNISENLYLIAGDSFLESLSLALNYAVINPANIKAWSEYMTAIRRLCEYEYNSETYKDMVVFIDCNPSFSMYTQMALVSSDKIVVPMMADFSSLEGIKSLFMLLFGKYPSAALKQYADGIITFNNQVEHFQLKLPLIYEFVFNNYTIKDGVATAFDSIRTELIDFCYEQFNKFPSLFAPCQHTPTSSKEWENYYFSGIKDFHTSGKVSSSLGIPMSMLPKESKYIMPDGSVVRLPISNYSQALEEIELFVDKIH", "soluble on expression in E. coli": "not soluble"}
{"sequence": "MSLTTIRVFDTTLRDGEQMPGVSLPLEYKIRIAKQLDKLGVDVIEAGFPSATKGEFESVKEISSLSLNAEICGLARIVKEDIDAAINANVDMVHIFVPTSRIQIEHTVKMSKEEIIEKSVECVEYIKSHGVKCMFSAMDATRTEVEYLKQIFKAVENAKVDIVNVPDTVGVATPFKFYELIKQLREHLKVPIDVHCHNDFGLAVANTYAAVMAGANEVQVTVNGIGERAGNADLAQVVMILHAIEGIKTNIKTEHLFETSKLVERLTGVKMPPNHPIVGENAFSHESGIHAHGVLKEYSEGHHHHHH", "soluble on expression in E. coli": "soluble"}
{"sequence": "MSLKILVIGPSWVGDMVMSQSLYQRLKQQHPDAQIDVLAPAWCKPILERMPEVNQAIEMTIGHGAFNLLGRRAIGCELRDNRYTHAIVLPNSAKSALIPWFANIPKRTGWKGEFRYGLLNDLRPDKRVFQYMVERYVALAHPKATMLADVSLEHCPRPKLVIDAIVQQAARQRLSLVSSRPVIGLCPGAEFGPAKRWPDHYYAEVARYAIEQGFQVWLFGSAKDHSVTTQIQQALSEEQREYCANLAGETSLIEAVDLLAACHTVVSNDSGLMHVSAAVGCNIVAIYGSSSPKYTPPLTDKLAVVHTEIECRPCFKRVCPLEHLNCLNQLKPAQVIKALDKFIGKDSEGHHHHHH", "soluble on expression in E. coli": "soluble"}
{"sequence": "MGSDKIHHHHHHMTQPELTPAQRTEVELLARGRADKSRVLRDLKLPETPEAAHALLLRLGVWDEARTPYADRLRAALNAVELPVPDFDPAEERLDLTHLPTFAIDDEGNQDPDDAVGVEDLGGGLTRLWVHVADVAALVAPDSPLDLEARARGATLYLPDRTIGMLPDELVAKAGLGLHEVSPALSICLDLDPDGNAEAVDVLLTRVKVQRLAYQEAQARLEAGEEPFVTLARLARASRRLREGEGALSIDLPEVRVKADETGASVFPLPKPEMRTVVQECMTLAGWGTAIFADDNEIPLPFATQDYPTREVAGDTLPAMWARRKTLARTRFQPSPGPHHGMGLDLYAQATSPMRRYLDLVVHQQLRAFLAGRDPLSSKVMAAHIAESQMNADATRQAERLSRRHHTLRFIAAQPERVWDAVVVDRRGAQATLLIPDLAFDVQVNTPAAPGTALQVQFADIDLPQMRVRARSV", "soluble on expression in E. coli": "not soluble"}
{"sequence": "CSEVNVVKERPKTDEHKSYSCSFKGCTDVELVAVICPYCEKNFCLRHRHQSDHDCEKLEVAKPRMAATQKLVR", "soluble on expression in E. coli": "soluble"}
